From US20140341881A1

T1: human kallikrein 14 (hK14) (human) (UniProt Q9P0G3)
T1 sequence (looked up): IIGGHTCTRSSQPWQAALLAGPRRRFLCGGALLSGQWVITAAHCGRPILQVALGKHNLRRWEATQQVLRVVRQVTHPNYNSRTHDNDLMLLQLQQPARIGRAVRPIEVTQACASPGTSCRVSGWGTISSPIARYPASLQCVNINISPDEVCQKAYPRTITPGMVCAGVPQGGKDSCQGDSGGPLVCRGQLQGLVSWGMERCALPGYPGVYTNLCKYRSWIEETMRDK


Each binder was assayed against trypsin (human), P07477 (assay: cell-based or functional assay).
Further: test concentration or dose not given here.

Binder	% Inhibition [%]	Percentage inhibition [%]
AATE8, P01009 25-418 (protein, human) HHHHHHEDPQGDAAQKTDTSHHDQDHPTFNKITPNLAEFAFSLYRQLAHQSNSTNIFFSPVSIATAFAMLSLGTKADTHDEILEGLNFNLTEIPEAQIHEGFQELLRTLNQPDSQLQLTTGNGLFLSEGLKLVDKFLEDVKKLYHSEAFTVNFGDTEEAKKQINDYVEKGTQGKIVDLVKELDRDTVFALVNYIFFKGKWERPFEVKDTEEEDFHVDQVTTVKVPMMKRLGMFNIQHCKKLSSWVLLMKYLGNATAIFFLPDEGKLQHLENELTHDIITKFLENEDRRSASLHLPKLSITGTYDLKSVLGQLGITKVFSNGADLSGVTEEAPLKLSKAVHKAVLTIDEKGTEAAGAMFLEALQRAIPPEVKFNKPFVFLMIEQNTKSPLFMGKVVNPTQK	100	100
AATG9, P01009 25-418 (protein, human) HHHHHHEDPQGDAAQKTDTSHHDQDHPTFNKITPNLAEFAFSLYRQLAHQSNSTNIFFSPVSIATAFAMLSLGTKADTHDEILEGLNFNLTEIPEAQIHEGFQELLRTLNQPDSQLQLTTGNGLFLSEGLKLVDKFLEDVKKLYHSEAFTVNFGDTEEAKKQINDYVEKGTQGKIVDLVKELDRDTVFALVNYIFFKGKWERPFEVKDTEEEDFHVDQVTTVKVPMMKRLGMFNIQHCKKLSSWVLLMKYLGNATAIFFLPDEGKLQHLENELTHDIITKFLENEDRRSASLHLPKLSITGTYDLKSVLGQLGITKVFSNGADLSGVTEEAPLKLSKAVHKAVLTIDEKGTEAAGAMFLETVDYAIPPEVKFNKPFVFLMIEQNTKSPLFMGKVVNPTQK	0	0
AATG1g, P01009 25-418 (protein, human) HHHHHHEDPQGDAAQKTDTSHHDQDHPTFNKITPNLAEFAFSLYRQLAHQSNSTNIFFSPVSIATAFAMLSLGTKADTHDEILEGLNFNLTEIPEAQIHEGFQELLRTLNQPDSQLQLTTGNGLFLSEGLKLVDKFLEDVKKLYHSEAFTVNFGDTEEAKKQINDYVEKGTQGKIVDLVKELDRDTVFALVNYIFFKGKWERPFEVKDTEEEDFHVDQVTTVKVPMMKRLGMFNIQHCKKLSSWVLLMKYLGNATAIFFLPDEGKLQHLENELTHDIITKFLENEDRRSASLHLPKLSITGTYDLKSVLGQLGITKVFSNGADLSGVTEEAPLKLSKAVHKAVLTIDEKGTEAAGAMFLEGSLRGIPPEVKFNKPFVFLMIEQNTKSPLFMGKVVNPTQK	100	
AATC11, P01009 25-418 (protein, human) HHHHHHEDPQGDAAQKTDTSHHDQDHPTFNKITPNLAEFAFSLYRQLAHQSNSTNIFFSPVSIATAFAMLSLGTKADTHDEILEGLNFNLTEIPEAQIHEGFQELLRTLNQPDSQLQLTTGNGLFLSEGLKLVDKFLEDVKKLYHSEAFTVNFGDTEEAKKQINDYVEKGTQGKIVDLVKELDRDTVFALVNYIFFKGKWERPFEVKDTEEEDFHVDQVTTVKVPMMKRLGMFNIQHCKKLSSWVLLMKYLGNATAIFFLPDEGKLQHLENELTHDIITKFLENEDRRSASLHLPKLSITGTYDLKSVLGQLGITKVFSNGADLSGVTEEAPLKLSKAVHKAVLTIDEKGTEAAGAMFLEAIPRQTNPEVKFNKPFVFLMIEQNTKSPLFMGKVVNPTQK	100	
AATG1, P01009 25-418 (protein, human) HHHHHHEDPQGDAAQKTDTSHHDQDHPTFNKITPNLAEFAFSLYRQLAHQSNSTNIFFSPVSIATAFAMLSLGTKADTHDEILEGLNFNLTEIPEAQIHEGFQELLRTLNQPDSQLQLTTGNGLFLSEGLKLVDKFLEDVKKLYHSEAFTVNFGDTEEAKKQINDYVEKGTQGKIVDLVKELDRDTVFALVNYIFFKGKWERPFEVKDTEEEDFHVDQVTTVKVPMMKRLGMFNIQHCKKLSSWVLLMKYLGNATAIFFLPDEGKLQHLENELTHDIITKFLENEDRRSASLHLPKLSITGTYDLKSVLGQLGITKVFSNGADLSGVTEEAPLKLSKAVHKAVLTIDEKGTEAAGAMFLEGSLRSIPPEVKFNKPFVFLMIEQNTKSPLFMGKVVNPTQK	100	

Now from value to binder:

% Inhibition [%]	Percentage inhibition [%]	Binder
100	100	ACTE8, P01011 24-423 (protein) MRGSHHHHHHSRHPNSPLDEENLTQENQDRGTHVDLGLASANVDFAFSLYKQLVLKAPDKNVIFSPLSISTALAFLSLGAHNTTLTEILKGLKFNLTETSEAEIHQSFQHLLRTLNQSSDELQLSMGNAMFVKEQLSLLDRFTEDAKRLYGSEAFATDFQDSAAAKKLINDYVKNGTRGKITDLIKDLDSQTMMVLVNYIFFKAKWEMPFDPQDTHQSRFYLSKKKWVMVPMMSLHHLTIPYFRDEELSCTVVELKYTGNASALFILPDQDKMEEVEAMLLPETLKRWRDSLEFREIGELYLPKFSISRDYNLNDILLQLGIEEAFTSKADLSGITGARNLAVSQVVHKAVLDVFEEGTEASAATAVKILQRAILVETRTIVRFNRPFLMIIVPTDTQNIFFMSKVTNPKQA
	0	ACTG9, P01011 24-423 (protein) MRGSHHHHHHSRHPNSPLDEENLTQENQDRGTHVDLGLASANVDFAFSLYKQLVLKAPDKNVIFSPLSISTALAFLSLGAHNTTLTEILKGLKFNLTETSEAEIHQSFQHLLRTLNQSSDELQLSMGNAMFVKEQLSLLDRFTEDAKRLYGSEAFATDFQDSAAAKKLINDYVKNGTRGKITDLIKDLDSQTMMVLVNYIFFKAKWEMPFDPQDTHQSRFYLSKKKWVMVPMMSLHHLTIPYFRDEELSCTVVELKYTGNASALFILPDQDKMEEVEAMLLPETLKRWRDSLEFREIGELYLPKFSISRDYNLNDILLQLGIEEAFTSKADLSGITGARNLAVSQVVHKAVLDVFEEGTEASAATAVKTVDYAALVETRTIVRFNRPFLMIIVPTDTQNIFFMSKVTNPKQA
100		ACTC11, P01011 24-423 (protein) MRGSHHHHHHSRHPNSPLDEENLTQENQDRGTHVDLGLASANVDFAFSLYKQLVLKAPDKNVIFSPLSISTALAFLSLGAHNTTLTEILKGLKFNLTETSEAEIHQSFQHLLRTLNQSSDELQLSMGNAMFVKEQLSLLDRFTEDAKRLYGSEAFATDFQDSAAAKKLINDYVKNGTRGKITDLIKDLDSQTMMVLVNYIFFKAKWEMPFDPQDTHQSRFYLSKKKWVMVPMMSLHHLTIPYFRDEELSCTVVELKYTGNASALFILPDQDKMEEVEAMLLPETLKRWRDSLEFREIGELYLPKFSISRDYNLNDILLQLGIEEAFTSKADLSGITGARNLAVSQVVHKAVLDVFEEGTEASAATAVKITLRQTNVETRTIVRFNRPFLMIIVPTDTQNIFFMSKVTNPKQA
100		ACTC11D, P01011 24-423 (protein) MRGSHHHHHHSRHPNSPLDEENLTQENQDRGTHVDLGLASANVDFAFSLYKQLVLKAPDKNVIFSPLSISTALAFLSLGAHNTTLTEILKGLKFNLTETSEAEIHQSFQHLLRTLNQSSDELQLSMGNAMFVKEQLSLLDRFTEDAKRLYGSEAFATDFQDSAAAKKLINDYVKNGTRGKITDLIKDLDSQTMMVLVNYIFFKAKWEMPFDPQDTHQSRFYLSKKKWVMVPMMSLHHLTIPYFRDEELSCTVVELKYTGNASALFILPDQDKMEEVEAMLLPETLKRWRDSLEFREIGELYLPKFSISRDYNLNDILLQLGIEEAFTSKADLSGITGARNLAVSQVVHKAVLDVFEEGTEASAATAVKITLRQTNDETRTIVRFNRPFLMIIVPTDTQNIFFMSKVTNPKQA
0	0	rACTWT (recombinant wild type alpha-1-antichymotrypsin), P01011 24-423 (protein, human) HHHHHHHPNSPLDEENLTQENQDRGTHVDLGLASANVDFAFSLYKQLVLKAPDKNVIFSPLSISTALAFLSLGAHNTTLTEILKGLKFNLTETSEAEIHQSFQHLLRTLNQSSDELQLSMGNAMFVKEQLSLLDRFTEDAKRLYGSEAFATDFQDSAAAKKLINDYVKNGTRGKITDLIKDLDSQTMMVLVNYIFFKAKWEMPFDPQDTHQSRFYLSKKKWVMVPMMSLHHLTIPYFRDEELSCTVVELKYTGNASALFILPDQDKMEEVEAMLLPETLKRWRDSLEFREIGELYLPKFSISRDYNLNDILLQLGIEEAFTSKADLSGITGARNLAVSQVVHKAVLDVFEEGTEASAATAVKITLLSALVETRTIVRFNRPFLMIIVPTDTQNIFFMSKVTNPKQA

These binders were tested against T1, human kallikrein 14 (hK14) (human) (assay: cell-based or functional assay).

% Inhibition [%]	Percentage inhibition [%]	Binder
17	17	rACTWT (recombinant wild type alpha-1-antichymotrypsin) (protein, human) HHHHHHHPNSPLDEENLTQENQDRGTHVDLGLASANVDFAFSLYKQLVLKAPDKNVIFSPLSISTALAFLSLGAHNTTLTEILKGLKFNLTETSEAEIHQSFQHLLRTLNQSSDELQLSMGNAMFVKEQLSLLDRFTEDAKRLYGSEAFATDFQDSAAAKKLINDYVKNGTRGKITDLIKDLDSQTMMVLVNYIFFKAKWEMPFDPQDTHQSRFYLSKKKWVMVPMMSLHHLTIPYFRDEELSCTVVELKYTGNASALFILPDQDKMEEVEAMLLPETLKRWRDSLEFREIGELYLPKFSISRDYNLNDILLQLGIEEAFTSKADLSGITGARNLAVSQVVHKAVLDVFEEGTEASAATAVKITLLSALVETRTIVRFNRPFLMIIVPTDTQNIFFMSKVTNPKQA
